Measurements: patent publication US20130273053A1 (UNIVERSITY OF LEICESTER, published 2013)

Target: T1, human MASP-3 (human)
T1 construct: also called MASP-3 antigen
T1 chain: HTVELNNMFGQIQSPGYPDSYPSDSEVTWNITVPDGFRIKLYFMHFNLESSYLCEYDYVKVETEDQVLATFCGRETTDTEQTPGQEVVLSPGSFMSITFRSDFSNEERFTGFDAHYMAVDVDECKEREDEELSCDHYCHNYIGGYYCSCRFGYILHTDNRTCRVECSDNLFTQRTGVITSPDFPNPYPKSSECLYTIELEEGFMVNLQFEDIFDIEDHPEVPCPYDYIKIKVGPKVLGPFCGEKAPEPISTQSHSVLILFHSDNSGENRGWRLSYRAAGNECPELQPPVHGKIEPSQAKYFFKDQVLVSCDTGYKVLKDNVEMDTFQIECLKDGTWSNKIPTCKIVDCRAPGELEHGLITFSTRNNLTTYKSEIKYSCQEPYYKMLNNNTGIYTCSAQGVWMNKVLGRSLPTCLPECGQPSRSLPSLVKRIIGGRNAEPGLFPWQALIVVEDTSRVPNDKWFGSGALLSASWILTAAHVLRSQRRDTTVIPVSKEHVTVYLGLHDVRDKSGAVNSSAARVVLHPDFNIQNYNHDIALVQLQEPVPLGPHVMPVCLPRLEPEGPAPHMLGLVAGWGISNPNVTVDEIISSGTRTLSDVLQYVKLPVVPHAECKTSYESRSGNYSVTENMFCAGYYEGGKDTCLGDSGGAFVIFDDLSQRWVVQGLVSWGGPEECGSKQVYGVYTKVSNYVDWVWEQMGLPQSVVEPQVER
Assay: saturation binding, DTLacO cells stained with fluorescent-labeled soluble antigen
Source text: Recombinant antibodies were generated by cloning PCR-amplified V regions into a vector that supported expression of human IgG1 in 293F cells (Yabuki et al., PLoS ONE, 7(4):e36032 (2012)).

Kd: ~31 nM
B1: MASP-3 specific clone M3J5 (antibody, IgM, V domains shown)
VH: AVTLDESGGGLQTPGGGLSLVCKASGFTFSSYAMGWMRQAPGKGLEYVAGIRSDGSFTLYATAVKGRATISRDNGQSTVRLQLNNLRAEDTATYFCTRSGNVGDIDAWGHGTEVIVSS
VL: ALTQPASVSANPGETVKITCSGGYSGYAGSYYYGWYQQKAPGSAPVTLIYYNNKRPSDIPSRFSGSLSGSTNTLTITGVRADDEAVYFCGSADNSGAAFGAGTTLTVL
notes: Chicken V regions; also called Clone 5; DTLacO clone M3J5
